Data on 2 molecules can be found in patent US20250043017A1.

The target in assay [1] is human PD1 on Jurkat/AP1-luc/hPD1 cells (human) (UniProt Q15116). Kind of assay: cell-based or functional assay.
Assay [2] has as its target human 4-1BB expressed with a C-terminal myc-myc-hexahistidine tag (h4-1BB.mmH) (human). Nature of the assay: blocking ELISA, 0.25 nM h4-1BB-mmh binding to coated 6His-Flag-h4-1BBL. (In an ELISA, binding on a coated surface is turned into a signal by an enzyme label.)

Sequence of human PD1 on Jurkat/AP1-luc/hPD1 cells (human) (Q15116 25-288): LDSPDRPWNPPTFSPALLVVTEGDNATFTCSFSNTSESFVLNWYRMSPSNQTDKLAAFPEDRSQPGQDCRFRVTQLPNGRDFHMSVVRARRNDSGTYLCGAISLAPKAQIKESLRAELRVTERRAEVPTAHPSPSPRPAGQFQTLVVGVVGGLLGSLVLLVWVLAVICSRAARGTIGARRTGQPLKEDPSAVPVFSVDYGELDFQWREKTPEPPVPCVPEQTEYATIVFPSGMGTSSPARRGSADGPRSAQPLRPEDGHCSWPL
Sequence of human 4-1BB expressed with a C-terminal myc-myc-hexahistidine tag (h4-1BB.mmH) (human) (chain, as listed by the source limits assumed): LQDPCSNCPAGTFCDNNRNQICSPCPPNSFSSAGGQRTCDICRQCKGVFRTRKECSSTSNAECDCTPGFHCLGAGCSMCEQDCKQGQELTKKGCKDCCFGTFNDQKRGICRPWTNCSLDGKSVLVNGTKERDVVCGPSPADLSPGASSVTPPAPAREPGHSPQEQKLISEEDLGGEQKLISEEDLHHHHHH

B1: REGN2810 (antibody, INN chains, looked up, V domains shown)
VH: EVQLLESGGVLVQPGGSLRLSCAASGFTFSNFGMTWVRQAPGKGLEWVSGISGGGRDTYFADSVKGRFTISRDNSKNTLYLQMNSLKGEDTAVYYCVKWGNIYFDYWGQGTLVTVSS
VL: DIQMTQSPSSLSASVGDSITITCRASLSINTFLNWYQQKPGKAPNLLIYAASSLHGGVPSRFSGSGSGTDFTLTIRTLQPEDFATYYCQQSSNTPFTFGPGTVVDFR
Consider B1, for which, in assay [1], the AP-1 luciferase EC50, Jurkat/AP1-luc/hPD1 + WSU-DLCL2/hPD-L1 + CD20xCD3 amounted to 290 pM and the AP-1 luciferase MAX (RLU), Jurkat/AP1-luc/hPD1 + WSU-DLCL2/hPD-L1 + CD20xCD3 was found to be 1.1e+06 RLU.

B2: Comparator 1 (antibody, INN chains, looked up, V domains shown)
VH: EVQLVQSGAEVKKPGESLRISCKGSGYSFSTYWISWVRQMPGKGLEWMGKIYPGDSYTNYSPSFQGQVTISADKSISTAYLQWSSLKASDTAMYYCARGYGIFDYWGQGTLVTVSS
VL: SYELTQPPSVSVSPGQTASITCSGDNIGDQYAHWYQQKPGQSPVLVIYQDKNRPSGIPERFSGSNSGNTATLTISGTQAMDEADYYCATYTGFGSLAVFGGGTKLTVLG
Molecule B2 displayed a % Blocking at 100 nM mAb in assay [2] of 72%.
